The values that follow come from patent US20140105889A1 (published 2014).

Changes are numbered by the printed parent chain. Numbers in names are those of the source.

B1: IL6R-BP205/IL6R-L (antibody, human IgG1)
heavy: QVQLQESGPGLVKPSETLSLTCAVSGHSISHDHAWSWVRQPPGEGLEWIGFISYSGITNYNPSLQGRVTISRDNSKNTLYLQMNSLRAEDTAVYYCARSLARTTAMDYWGEGTLVTVSSASTKGPSVFPLAPSSKSTSGGTAALGCLVKDYFPEPVTVSWNSGALTSGVHTFPAVLQSSGLYSLSSVVTVPSSSLGTQTYICNVNHKPSNTKVDKKVEPKSCDKTHTCPPCPAPDLLGGDSVFLFPPKPKDTLMISRTPEVTCVVVDVSHEDGEVKFNWYVDGVEVHNAKTKPREEQDNSTYRVVSVLTVLHQDWLNGKEYKCKVSNKALPRPIEKTISKAKGQPREPQVYTLPPSRDELTKNQVSLTCLVKGFYPSDIAVEWESNGQPENNYKTTPPVLDSDGSFFLYSKLTVDKSRWQQGNVFSCSVMHEALHNHYTQESLSLSP
light: DIQMTQSPSSLSASVGDRVTITCRASQDISSYLNWYQQKPGKAPKLLIYYTSRLHSGVPSRFSGSGSGTDFTFTISSLQPEDIATYYCQQGNTLPYTFGQGTKVEIK
notes: The common L chain is IL6R-L; copies: 2 + 2
B2: IL6R-BP214/IL6R-L (antibody)
heavy: B1 heavy with L236Y, G239D, G273P, K328D, R332K
light: B1 light
notes: copies: 2 + 2
B3: IL6R-BP210/IL6R-L (antibody, human IgG1)
heavy: B1 heavy with D235E, G239D, H270D, D298Y
light: B1 light
notes: as for B1
B4: IL6R-B3/IL6R-L (antibody, human IgG1)
heavy: not shown
light: B1 light
notes: IL6R-G1d with K439E (EU numbering); copies: 2 + 2
B5: IL6R-BP136/IL6R-L (antibody, human IgG1)
heavy: B1 heavy with D235E, G273P, D298Y, K328A, R332A
light: B1 light
notes: copies: 2 + 2
B6: IL6R-BP112/IL6R-L (antibody, human IgG1)
heavy: B1 heavy with D235E, D298Y, R332A
light: B1 light
notes: copies: 2 + 2
B7: IL6R-2B169/IL6R-L (antibody, human IgG1)
heavy: B1 heavy with D235E, G273P, D298Y, V325I, R332A
light: B1 light
notes: copies: 2 + 2
B8: IL6R-BP117/IL6R-L (antibody, human IgG1)
heavy: B1 heavy with D235E, G273P, D298Y, K328D, R332A
light: B1 light
notes: copies: 2 + 2
B9: IL6R-BP911/IL6R-L (antibody, human IgG1)
heavy: B1 heavy with D235E, G273P, D298Y, R332K
light: B1 light
notes: copies: 2 + 2
B10: IL6R-BP107/IL6R-L (antibody, human IgG1)
heavy: B1 heavy with D235E, H270E, G273P, D298Y, R332A
light: B1 light
notes: copies: 2 + 2
B11: IL6R-BP142/IL6R-L (antibody, human IgG1)
heavy: B1 heavy with D235E, G273P, D298Y, K328N, R332A
light: B1 light
notes: copies: 2 + 2
B12: IL6R-BP120/IL6R-L (antibody, human IgG1)
heavy: B1 heavy with D235E, G273P, D298Y, K328E, R332A
light: B1 light
notes: copies: 2 + 2
B13: IL6R-2B128/IL6R-L (antibody, human IgG1)
heavy: B1 heavy with D235E, G273P, R332A
light: B1 light
notes: copies: 2 + 2
B14: IL6R-BP126/IL6R-L (antibody, human IgG1)
heavy: B1 heavy with D235E, G273P, D298Y, K328L, R332A
light: B1 light
notes: copies: 2 + 2
B15: IL6R-2B002/IL6R-L (antibody, human IgG1)
heavy: B1 heavy with G273P, D298Y, R332A
light: B1 light
notes: copies: 2 + 2
B16: IL6R-BP078/IL6R-L (antibody, human IgG1)
heavy: B1 heavy with D235E, G273P, D298Y, R332M
light: B1 light
notes: copies: 2 + 2
B17: IL6R-BP192/IL6R-L (antibody, human IgG1)
heavy: B1 heavy with H270D, R332K
light: B1 light
notes: Anti-human IL-6 receptor human IgG1 variant; copies: 2 + 2
B18: IL6R-BP193/IL6R-L (antibody, human IgG1)
heavy: B1 heavy with H270D, D298Y, R332K
light: B1 light
notes: as for B17

T8 sequence (P08637 other isoform, or with tags, fused parts or gaps limits assumed): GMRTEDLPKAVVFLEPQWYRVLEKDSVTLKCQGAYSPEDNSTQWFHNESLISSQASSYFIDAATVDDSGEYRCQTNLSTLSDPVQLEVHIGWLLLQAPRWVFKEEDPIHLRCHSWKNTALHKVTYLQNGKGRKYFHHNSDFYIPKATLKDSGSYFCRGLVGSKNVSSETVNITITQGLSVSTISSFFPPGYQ

The first test concerns the target T1, human FcγRIa (human, UniProt P12314 16-292, limits assumed).
T1 construct: also called FcgRIa; CD64
The experiment in a line: SPR (Biacore); binding amount divided by that of control IL6R-BF648/IL6R-L, x100.
T1 sequence (P12314 16-292 limits assumed): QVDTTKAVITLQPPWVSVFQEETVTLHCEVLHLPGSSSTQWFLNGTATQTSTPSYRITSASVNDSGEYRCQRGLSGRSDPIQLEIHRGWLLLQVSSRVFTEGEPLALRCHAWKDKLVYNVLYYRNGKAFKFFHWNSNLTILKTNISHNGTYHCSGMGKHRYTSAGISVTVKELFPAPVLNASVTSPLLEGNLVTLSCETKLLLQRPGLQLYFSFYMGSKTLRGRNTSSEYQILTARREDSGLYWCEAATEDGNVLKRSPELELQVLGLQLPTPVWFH
Protocol: (§1) According to the following method, relative binding activities were calculated for the results of analyzing interactions with the respective FcγRs.
In the case of B1, the relative binding activity is 97 % of IL6R-BF648/IL6R-L.

On to B2, for which the relative binding activity was 36 % of IL6R-BF648/IL6R-L.

For B3, the relative binding activity was 57 % of IL6R-BF648/IL6R-L.

Another test addresses T2, human FcγRIIa type H (human, UniProt P12318 36-217).
T2 construct: also called FcgRIIaH; FcγRIIa(H)
T2 sequence: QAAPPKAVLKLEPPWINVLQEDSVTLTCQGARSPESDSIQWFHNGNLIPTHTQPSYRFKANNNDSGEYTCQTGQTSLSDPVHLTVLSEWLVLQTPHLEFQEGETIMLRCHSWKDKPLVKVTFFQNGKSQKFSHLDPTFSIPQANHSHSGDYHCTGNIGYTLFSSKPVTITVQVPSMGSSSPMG
Described as above.
Protocol: as §1
For the molecule B1, the relative binding activity was 108 % of IL6R-BF648/IL6R-L.

In the case of B2, the relative binding activity was 285 % of IL6R-BF648/IL6R-L.

For the molecule B3, the relative binding activity is 279 % of IL6R-BF648/IL6R-L.

For a further test, the target named is T3, human FcγRIIb (human, UniProt P31994 43-217, limits assumed).
T3 construct: also called FcgRIIb; FcγIIB
T3 sequence: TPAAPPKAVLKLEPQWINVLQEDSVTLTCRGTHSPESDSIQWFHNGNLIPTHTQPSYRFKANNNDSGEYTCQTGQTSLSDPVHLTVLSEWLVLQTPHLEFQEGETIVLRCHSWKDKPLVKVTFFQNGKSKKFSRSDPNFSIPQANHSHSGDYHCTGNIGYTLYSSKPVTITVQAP
Described as above.
Protocol: as §1
B1: the relative binding activity is 167 % of IL6R-BF648/IL6R-L.

For B2, the relative binding activity was 174 % of IL6R-BF648/IL6R-L.

On to B3, for which the relative binding activity is 187 % of IL6R-BF648/IL6R-L.

A further test addresses T4, human FcγRIa (human, UniProt P12314 16-292, limits assumed).
T4 construct: also called CD64
As to the kind of experiment: SPR (Biacore), FcγR over captured antibody; amount bound relative to IL6R-BF648/IL6R-L x100. (In general: Surface plasmon resonance follows binding to a sensor surface in real time, without labels.)
T4 sequence (P12314 16-292 limits assumed): as the sequence (P12314 16-292 limits assumed) above
Regarding B4, the relative binding was 145 relative value (IL6R-BF648/IL6R-L = 100).

With B5, the relative binding is 117 relative value (IL6R-BF648/IL6R-L = 100).

For B6, the relative binding is 119 relative value (IL6R-BF648/IL6R-L = 100).

In the case of B7, the relative binding is 73 relative value (IL6R-BF648/IL6R-L = 100).

Regarding B8, the relative binding is 124 relative value (IL6R-BF648/IL6R-L = 100).

Turning to B9, the relative binding was 52 relative value (IL6R-BF648/IL6R-L = 100).

As for B10, the relative binding was 123 relative value (IL6R-BF648/IL6R-L = 100).

Consider B11, for which the relative binding is 98 relative value (IL6R-BF648/IL6R-L = 100).

Turning to B12, the relative binding was 125 relative value (IL6R-BF648/IL6R-L = 100).

On to B13, for which the relative binding was 95 relative value (IL6R-BF648/IL6R-L = 100).

For B14, the relative binding was 113 relative value (IL6R-BF648/IL6R-L = 100).

As to B15, the relative binding was 118 relative value (IL6R-BF648/IL6R-L = 100).

The next test concerns the target T5, human FcγRIIa type R (human, UniProt P12318 36-217).
T5 construct: also called FcγRIIaR; FcγRIIa(R)
T5 chain: T2 sequence with H133R
Described as above.
Regarding B4, the relative binding was 625 relative value (IL6R-BF648/IL6R-L = 100).

Turning to B5, the relative binding is 159 relative value (IL6R-BF648/IL6R-L = 100).

B16: the relative binding was 101 relative value (IL6R-BF648/IL6R-L = 100).

In the case of B6, the relative binding is 340 relative value (IL6R-BF648/IL6R-L = 100).

For B8, the relative binding is 166 relative value (IL6R-BF648/IL6R-L = 100).

B9: the relative binding was 101 relative value (IL6R-BF648/IL6R-L = 100).

Consider B10, for which the relative binding is 147 relative value (IL6R-BF648/IL6R-L = 100).

Regarding B11, the relative binding is 103 relative value (IL6R-BF648/IL6R-L = 100).

As to B12, the relative binding is 175 relative value (IL6R-BF648/IL6R-L = 100).

With B13, the relative binding is 87 relative value (IL6R-BF648/IL6R-L = 100).

Consider B14, for which the relative binding is 167 relative value (IL6R-BF648/IL6R-L = 100).

Regarding B15, the relative binding is 103 relative value (IL6R-BF648/IL6R-L = 100).

In the next test the target is T6, human FcγRIIa type H (human, UniProt P12318 36-217).
T6 construct: Whole entry named for FcγRIIa allotype H131 (AAH20823.1); also called FcγRIIaH; FcγRIIa(H)
T6 sequence: T2 sequence
Described as above.
With B4, the relative binding is 1600 relative value (IL6R-BF648/IL6R-L = 100).

B5: the relative binding is 103 relative value (IL6R-BF648/IL6R-L = 100).

With B16, the relative binding was 89 relative value (IL6R-BF648/IL6R-L = 100).

With B6, the relative binding was 113 relative value (IL6R-BF648/IL6R-L = 100).

On to B7, for which the relative binding is 83 relative value (IL6R-BF648/IL6R-L = 100).

As for B8, the relative binding is 96 relative value (IL6R-BF648/IL6R-L = 100).

In the case of B9, the relative binding is 108 relative value (IL6R-BF648/IL6R-L = 100).

For the molecule B11, the relative binding was 97 relative value (IL6R-BF648/IL6R-L = 100).

As to B13, the relative binding is 37 relative value (IL6R-BF648/IL6R-L = 100).

As to B14, the relative binding is 132 relative value (IL6R-BF648/IL6R-L = 100).

For B15, the relative binding was 147 relative value (IL6R-BF648/IL6R-L = 100).

The target of a further test is T7, human FcγRIIb (human, UniProt P31994 43-217).
T7 construct: also called FcγIIB
T7 sequence: T3 sequence
The test is described as above.
On to B4, for which the relative binding was 58 relative value (IL6R-BF648/IL6R-L = 100).

B5: the relative binding is 119 relative value (IL6R-BF648/IL6R-L = 100).

B6: the relative binding was 157 relative value (IL6R-BF648/IL6R-L = 100).

With B7, the relative binding is 104 relative value (IL6R-BF648/IL6R-L = 100).

In the case of B8, the relative binding is 118 relative value (IL6R-BF648/IL6R-L = 100).

Take B9: the relative binding was 119 relative value (IL6R-BF648/IL6R-L = 100).

Take B10: the relative binding was 118 relative value (IL6R-BF648/IL6R-L = 100).

Consider B11, for which the relative binding is 106 relative value (IL6R-BF648/IL6R-L = 100).

On to B12, for which the relative binding is 114 relative value (IL6R-BF648/IL6R-L = 100).

For the molecule B13, the relative binding is 103 relative value (IL6R-BF648/IL6R-L = 100).

As to B14, the relative binding is 103 relative value (IL6R-BF648/IL6R-L = 100).

Another test concerns the target T8, human FcγRIIIa type V (human, UniProt P08637 17-208, limits assumed).
T8 construct: also called FcγRIIIaV; FcγRIIIa(V)
Described as above.
As for B4, the relative binding is 3260 relative value (IL6R-BF648/IL6R-L = 100).

For the molecule B16, the relative binding is 91 relative value (IL6R-BF648/IL6R-L = 100).

On to B7, for which the relative binding was 94 relative value (IL6R-BF648/IL6R-L = 100).

In the case of B10, the relative binding is 129 relative value (IL6R-BF648/IL6R-L = 100).

For the molecule B13, the relative binding is 96 relative value (IL6R-BF648/IL6R-L = 100).

Take B15: the relative binding is 147 relative value (IL6R-BF648/IL6R-L = 100).

The next test addresses T9, human FcγRIIb (human, UniProt P31994 43-217).
T9 construct: also called FcγIIB
T9 sequence: T3 sequence
As to the kind of experiment: SPR (Biacore); KD of parent IL6R-B3/IL6R-L for FcγRIIb divided by KD of the variant for FcγRIIb.
Description: Furthermore, KD(IIaR)/KD(IIb) and KD(IIaH)/KD(IIb) in the table respectively represent the value obtained by dividing the KD value of each variant for FcγRIIaR by the KD value of each variant for FcγRIIb, and the value obtained by dividing the KD value of each variant for FcγRIIaH by the KD value of each variant for FcγRIIb.
Consider B17, for which the “KD(IIb) of the parent polypeptide/KD(IIb) of the altered polypeptide” value amounted to 27.3.

For the molecule B18, the “KD(IIb) of the parent polypeptide/KD(IIb) of the altered polypeptide” value came out at 25.5.
